Measured values as given in article PMC5702613 (Nature Communications, 2017).

B1: Ubc13 (C87K, K92T, K94Q), the E2 moiety of the Ubc13~Ub conjugate (enzyme)
chain: MAGLPRRIIKETQRLLAEPVPGIKAEPDESNARYFHVVIAGPQDSPFEGGTFKLELFLPEEYPMAAPKVRFMTKIYHPNVDKLGRIKLDILTDQWSPALQIRTVLLSIQALLSAPNPDDPLANDVAEQWKTNEAQAIETARAWTRLYAMNNI
modifications: isopeptide-linked to ubiquitin (C87K allows the stable isopeptide link)
notes: Ubc13 (also called Ube2N), E2 enzyme, with C87K, K92T and K94Q; Stands in the structures only as the Ubc13 moiety of the conjugate m4; also called Ube2N; not shown: GST, N-terminal, cleaved
B2: Danio rerio TRAF6 RZ1 (RING and ZF1, residues 50-159) (domain or fragment, UniProt Q6IWL4 50-159, looked up)
chain: MPPDQQGYDVEFDPPLESKYECPICLMGLRSAVQTPCGHRFCDSCIRKSIRDTGQKCPVDNEVLLEEQLFPDNFAKREILSLTVKCSNFGCSEKMELRQLEKHLSQCRFA
notes: TRAF6, Danio rerio, residues 50-159 (RING and ZF1), 13.7 kDa, in pET24b; also called DrRZ1; source: E. coli BL21 (DE3), purified (HisTrap, size exclusion)
B3: Homo sapiens TRAF6 RZ3 (RING domain and first three zinc fingers, residues 50-211) (domain or fragment, UniProt Q9Y4K3 50-211, looked up)
chain: MEEIQGYDVEFDPPLESKYECPICLMALREAVQTPCGHRFCKACIIKSIRDAGHKCPVDNEILLENQLFPDNFAKREILSLMVKCPNEGCLHKMELRHLEDHQAHCEFALMDCPQCQRPFQKFHINIHILKDCPRRQVSCDNCAASMAFEDKEIHDQNCPLA
notes: TNF receptor-associated factor 6 (TRAF6), human, residues 50-211 (RING and ZF1-3), 20.0 kDa, in pET21d; also called HsRZ3; wild-type HsRZ3; source: E. coli BL21 (DE3), purified (HisTrap, size exclusion)
B4: Danio rerio TRAF6 RZ3 (residues 50-213) (domain or fragment, UniProt Q6IWL4 50-213, looked up)
chain: MPPDQQGYDVEFDPPLESKYECPICLMGLRSAVQTPCGHRFCDSCIRKSIRDTGQKCPVDNEVLLEEQLFPDNFAKREILSLTVKCSNFGCSEKMELRQLEKHLSQCRFATAPCPQCQESVPISHLDEHKSQHCLQRIMTCPDCAGSFVYAVKQNHEQFCPFAN
notes: TRAF6, Danio rerio, residues 50-213 (RING and ZF1-3), 19.7 kDa, in pET24b; also called DrRZ3; D. rerio RZ3 TRAF6; source: E. coli BL21 (DE3), purified (HisTrap, size exclusion)

How the values were obtained:
[1] = target: B4; assay: crystal structure; DrRZ3-Ubc13~Ub complex, 3.9 Å, P4(2)2(1)2; 100-200 mM Na/K tartrate, 11-15% PEG 3350, 100 mM Bis-Tris propane pH 7.5; settings: both partners purified
[2] = target: T1, ubiquitin (wild-type), the ubiquitin moiety of the Ubc13~Ub conjugate (UniProt P0CG48 1-76, isopeptide-linked to Ubc13); assay: crystal structure; DrRZ1-Ubc13~Ub complex, 3.4 Å, C222(1); sodium citrate, 100 mM Bis-Tris propane, 17-23% PEG 3350; settings: both partners purified
T1 construct: ubiquitin, wild-type, expressed untagged; Stands in the structures only as the ubiquitin moiety of the conjugate m4; In the activity assays labelled or mutated ubiquitins (Cy3-Met-Cys-ubiquitin K63R, D77 ubiquitin) were used; source: E. coli BL21 (DE3), untagged, purified (HiTrap SP, Superdex 75)

[3] = target: T2, isopeptide-linked Ubc13-ubiquitin conjugate (Ubc13 C87K, K92T, K94Q linked to wild-type ubiquitin) (UniProt P61088 1-152; P0CG48 1-76, C87K | K92T | K94Q, isopeptide-linked to ubiquitin (C87K allows the stable isopeptide link) | isopeptide-linked to Ubc13); assay: as above; settings: both partners purified
T2 construct: Ubc13 (also called Ube2N), E2 enzyme, with C87K, K92T and K94Q; ubiquitin, wild-type, expressed untagged; Two chains joined covalently by an isopeptide bond; also called Ubc13~Ub conjugate; source: proteins from E. coli BL21 (DE3); conjugated in vitro with E1 and ATP, purified (Superdex 75); not shown: GST, N-terminal, cleaved

[4] = target: the molecule itself; assay: as above
[5] = target: B1; assay: as above; settings: both partners purified
[6] = target: T2, isopeptide-linked Ubc13-ubiquitin …; assay: pull-down; GST-fused Uev1A on resin mixed with TRAF6, Ubc13 and Ubc13~Ub conjugates; PBS, 0.2% TWEEN 20, 1 mM DTT, 4 °C, 1 h; Coomassie-stained SDS-PAGE; settings: both partners purified
[7] = target: T1, ubiquitin (wild-type), the ubiquitin …; assay: crystal structure; DrRZ3-Ubc13~Ub complex, 3.9 Å, P4(2)2(1)2; 100-200 mM Na/K tartrate, 11-15% PEG 3350, 100 mM Bis-Tris propane pH 7.5; settings: both partners purified
[8] = target: the molecule itself; assay: as above
[9] = target: T2, isopeptide-linked Ubc13-ubiquitin …; assay: SEC; DrRZ3 and Ubc13~Ub at 250 µM, alone or mixed, Superdex 200 10/300, 20 mM Tris-HCl pH 7.5, 150 mM NaCl; fractions on 16% SDS-PAGE; settings: both partners purified

Binder: B1
binding result [1]: binds
binding result [2]: binds

Binder: B2
binding result [2]: binds
binding result [3]: binds
stoichiometry N [4]: 2
binding result [5]: binds

Binder: B3
binding result [6]: binds

Binder: B4
binding result [7]: binds
stoichiometry N [8]: 2
binding result [9]: binds
